From patent US5536822A, “γ-phosphate linked adenosine 5' triphosphate sepharose” (University of Virginia Alumni Patents Foundation, priority 1994, dated 1996)

Key:
[1] = test system: T1, Nc1ncnc2c1ncn2[C@@H]1O[C@H](COP(=O)(O)OP(=O)(O)OP(=O)(O)O)[C@@H](O)[C@H]1O; assay: Inhibition constant of the ATP derivative / Km for ATP, p60^c-src assay (peptide substrate); assay type: biochemical; conditions: other: p60^c-src; pH 7.4
T1 construct: Department of Microbiology, University of Virginia (obtained from; not a purchase)
Source text: [γ-^32 P] ATP was synthesized according to the procedure set forth in Johnson et al., Advances in Cyclic Nucleotide Research, 10:135-167 (1979). The catalytic subunit of cyclic-AMP-dependent protein kinase was purchased from Promega. p60^c-arc was obtained from the Department of Microbiology, University of Virginia. Recombinant p42^mapk was purified as described in Haystead et al., (1992) FEBS Lett., 306:17-22. STE7 antibody was obtained from the University of Vancouver, Canada.
The 42-kDa MAP kinase (p42^mapk) and MAPKK were assayed as described previously (Haystead et al. (1992) FEBS. Lett., 306:17-22). The cyclic-A kinase assays (30 μl) included 1 μg cyclic-A kinase, 2 mM Kemptide, 50 mM Hepes, pH 7.4, 1 mM dithiothreitol, 200 μM ATP, 5 mM MgCl2. […]
In order to assess the effectiveness of adenosine 5'-(γ-4-aminophenyl)triphosphate as an affinity ligand for protein kinases, the inhibition constants (Ki) of the derivative were determined for four different protein kinases, namely, p42^mapk, cyclic-A kinase, MAPKK and p60^c-arc (Table 1). […] This also facilitated comparisons for the relative binding constants determined with other ATP analogs (Flockhart et al. (1984) Eur. J. Biochem., 140:289-295; Hoppe et al. (1972) Eur. J. Biochem., 80:369-372; Taylor et al. (1990) Peptides and Protein Phosphorylation (Kemp et al.) pp 2-32, CRC Press).

[2] = test system: Nc1ncnc2c1ncn2[C@@H]1O[C@H](COP(=O)(O)OP(=O)(O)OP(=O)(O)O)[C@@H](O)[C@H]1O; assay: purified protein, by the assay type; conditions: other: cyclic A kinase; pH 7.4
Source text: However, since the Km for ATP varied for each protein kinase tested, for comparative purposes it was convenient to determine the Ki /Km quotient (Table 1).

| Substance | Km [1] [µM] | Km [2] [µM] |
| --- | --- | --- |
| p60^c-src (Homo sapiens) | 6.2 ± 1.30 |  |
| Cyclic A kinase (Bos taurus) |  | 7.1 ± 0.51 |
